Test results from the supplement of paper PMC9112550, “Optimization of the antimicrobial peptide Bac7 by deep mutational scanning” (BMC Biology, 2022).

Tested on: Escherichia coli TOP10
Test: shrunken log2 fold change of peptide-encoding DNA abundance (4.5 h post-induction vs induction); higher = less antimicrobial activity (less host growth inhibition)
Conditions: time post-induction: 4.5 h; library: site-saturation at positions 5, 18, 19, 20
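Further: peptides expressed intracellularly from a pBAD plasmid library in pooled LB shake-flask culture, induced with 0.3% L-arabinose, DNA abundance read by NGS, three biological replicates, DESeq2 with apeglm shrinkage.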

## RRIRWRPPRLPRPRPRPFRPPRP
  shrunken log2 fold change: -0.165

## RRIRPRPPRLPRPRPRPKVSPRP
  shrunken log2 fold change: 0.0436

## RRIRWRPPRLPRPRPRPTKAPRP
  shrunken log2 fold change: 0.122

## RRIRQRPPRLPRPRPRPLFWPRP
  shrunken log2 fold change: -0.23

## RRIRLRPPRLPRPRPRPWNSPRP
  shrunken log2 fold change: -0.018

## RRIRPRPPRLPRPRPRPYQWPRP
  shrunken log2 fold change: -0.124

## RRIRSRPPRLPRPRPRPQPKPRP
  shrunken log2 fold change: 0.526

## RRIRMRPPRLPRPRPRPCYRPRP
  shrunken log2 fold change: 0.035

## RRIRKRPPRLPRPRPRPSSYPRP
  shrunken log2 fold change: 0.0295

## RRIRWRPPRLPRPRPRPEYGPRP
  shrunken log2 fold change: 0.222

## RRIRPRPPRLPRPRPRPLYVPRP
  shrunken log2 fold change: -0.433

## RRIRMRPPRLPRPRPRPNPCPRP
  shrunken log2 fold change: 0.169

## RRIRVRPPRLPRPRPRPSEPPRP
  shrunken log2 fold change: -0.11

## RRIRRRPPRLPRPRPRPGDMPRP
  shrunken log2 fold change: 0.0846

## RRIRGRPPRLPRPRPRPVAHPRP
  shrunken log2 fold change: 0.548

## RRIRVRPPRLPRPRPRPCMMPRP
  shrunken log2 fold change: -0.33

## RRIRCRPPRLPRPRPRPLNMPRP
  shrunken log2 fold change: -0.646

## RRIRIRPPRLPRPRPRPLSRPRP
  shrunken log2 fold change: -0.243

## RRIRSRPPRLPRPRPRPPVMPRP
  shrunken log2 fold change: 0.0439

## RRIRSRPPRLPRPRPRPYSNPRP
  shrunken log2 fold change: -0.549

## RRIRQRPPRLPRPRPRPNCVPRP
  shrunken log2 fold change: -0.0688

## RRIRGRPPRLPRPRPRPLCVPRP
  shrunken log2 fold change: 0.689

## RRIRRRPPRLPRPRPRPVPKPRP
  shrunken log2 fold change: 0.234

## RRIRFRPPRLPRPRPRPWDNPRP
  shrunken log2 fold change: -0.298

## RRIRLRPPRLPRPRPRPFWRPRP
  shrunken log2 fold change: 0.252

## RRIRVRPPRLPRPRPRPTWDPRP
  shrunken log2 fold change: 0.178

## RRIRMRPPRLPRPRPRPEQQPRP
  shrunken log2 fold change: -0.0233

## RRIRCRPPRLPRPRPRPWNKPRP
  shrunken log2 fold change: -0.684

## RRIRPRPPRLPRPRPRPRWLPRP
  shrunken log2 fold change: 0.299

## RRIRQRPPRLPRPRPRPKSNPRP
  shrunken log2 fold change: -0.29

## RRIRWRPPRLPRPRPRPDMGPRP
  shrunken log2 fold change: 0.454

## RRIRWRPPRLPRPRPRPESLPRP
  shrunken log2 fold change: 0.412

## RRIRDRPPRLPRPRPRPLLDPRP
  shrunken log2 fold change: 0.17

## RRIRQRPPRLPRPRPRPVASPRP
  shrunken log2 fold change: -0.0704

## RRIRARPPRLPRPRPRPLMMPRP
  shrunken log2 fold change: 0.205

## RRIRIRPPRLPRPRPRPNNHPRP
  shrunken log2 fold change: -1.03

## RRIRHRPPRLPRPRPRPYYMPRP
  shrunken log2 fold change: -0.636

## RRIRFRPPRLPRPRPRPRACPRP
  shrunken log2 fold change: 0.165

## RRIRGRPPRLPRPRPRPKTAPRP
  shrunken log2 fold change: 0.808

## RRIRFRPPRLPRPRPRPSHFPRP
  shrunken log2 fold change: -0.136

## RRIRKRPPRLPRPRPRPPMWPRP
  shrunken log2 fold change: 0.297

## RRIRERPPRLPRPRPRPDIPPRP
  shrunken log2 fold change: -0.366

## RRIRRRPPRLPRPRPRPTSNPRP
  shrunken log2 fold change: 0.123

## RRIRLRPPRLPRPRPRPYSMPRP
  shrunken log2 fold change: -0.924

## RRIRLRPPRLPRPRPRPDQIPRP
  shrunken log2 fold change: 0.018

## RRIRRRPPRLPRPRPRPNATPRP
  shrunken log2 fold change: 0.703

## RRIRMRPPRLPRPRPRPKQMPRP
  shrunken log2 fold change: 1.25

## RRIRFRPPRLPRPRPRPAAQPRP
  shrunken log2 fold change: 0.122

## RRIRTRPPRLPRPRPRPKTGPRP
  shrunken log2 fold change: -0.104

## RRIRTRPPRLPRPRPRPGWEPRP
  shrunken log2 fold change: 0.0505

## RRIRRRPPRLPRPRPRPFHLPRP
  shrunken log2 fold change: -0.184

## RRIRPRPPRLPRPRPRPKCGPRP
  shrunken log2 fold change: 0.574

## RRIRCRPPRLPRPRPRPIPTPRP
  shrunken log2 fold change: -0.0788

## RRIRGRPPRLPRPRPRPFGPPRP
  shrunken log2 fold change: 0.355

## RRIRQRPPRLPRPRPRPGYAPRP
  shrunken log2 fold change: 0.0993

## RRIRQRPPRLPRPRPRPFFRPRP
  shrunken log2 fold change: -0.236

## RRIRPRPPRLPRPRPRPNMHPRP
  shrunken log2 fold change: -0.329

## RRIRHRPPRLPRPRPRPQDLPRP
  shrunken log2 fold change: -0.0414

## RRIRNRPPRLPRPRPRPKSGPRP
  shrunken log2 fold change: 0.161

## RRIRGRPPRLPRPRPRPYEYPRP
  shrunken log2 fold change: 0.127

## RRIRQRPPRLPRPRPRPDWFPRP
  shrunken log2 fold change: -0.104

## RRIRIRPPRLPRPRPRPRTAPRP
  shrunken log2 fold change: 0.436

## RRIRGRPPRLPRPRPRPYKPPRP
  shrunken log2 fold change: -0.571

## RRIRFRPPRLPRPRPRPSFNPRP
  shrunken log2 fold change: -0.792

## RRIRYRPPRLPRPRPRPLLTPRP
  shrunken log2 fold change: -0.647

## RRIRGRPPRLPRPRPRPENTPRP
  shrunken log2 fold change: 0.841

## RRIRCRPPRLPRPRPRPGAYPRP
  shrunken log2 fold change: -0.319

## RRIRQRPPRLPRPRPRPDMCPRP
  shrunken log2 fold change: -0.225

## RRIRIRPPRLPRPRPRPYVNPRP
  shrunken log2 fold change: -0.0125

## RRIRCRPPRLPRPRPRPVPMPRP
  shrunken log2 fold change: 0.998

## RRIRGRPPRLPRPRPRPEFKPRP
  shrunken log2 fold change: 0.741

## RRIRERPPRLPRPRPRPMITPRP
  shrunken log2 fold change: -0.0683

## RRIRKRPPRLPRPRPRPEPNPRP
  shrunken log2 fold change: 0.737

## RRIRDRPPRLPRPRPRPNHEPRP
  shrunken log2 fold change: -0.0728

## RRIRHRPPRLPRPRPRPPVKPRP
  shrunken log2 fold change: 0.0106

## RRIRIRPPRLPRPRPRPSCGPRP
  shrunken log2 fold change: -0.174

## RRIRRRPPRLPRPRPRPAHQPRP
  shrunken log2 fold change: 0.732

## RRIRKRPPRLPRPRPRPPQHPRP
  shrunken log2 fold change: 0.5

## RRIRARPPRLPRPRPRPEDIPRP
  shrunken log2 fold change: 0.473

## RRIRSRPPRLPRPRPRPWAEPRP
  shrunken log2 fold change: 0.0168

## RRIRGRPPRLPRPRPRPPMSPRP
  shrunken log2 fold change: 0.565

## RRIRFRPPRLPRPRPRPLDHPRP
  shrunken log2 fold change: -0.359

## RRIRNRPPRLPRPRPRPYQFPRP
  shrunken log2 fold change: -0.225

## RRIRFRPPRLPRPRPRPEWMPRP
  shrunken log2 fold change: 0.236

## RRIRIRPPRLPRPRPRPNLYPRP
  shrunken log2 fold change: -0.565

## RRIRARPPRLPRPRPRPPQFPRP
  shrunken log2 fold change: 0.953

## RRIRMRPPRLPRPRPRPCCWPRP
  shrunken log2 fold change: 0.787

## RRIRYRPPRLPRPRPRPMCKPRP
  shrunken log2 fold change: -0.368

## RRIRCRPPRLPRPRPRPNGSPRP
  shrunken log2 fold change: -0.398

## RRIRWRPPRLPRPRPRPGECPRP
  shrunken log2 fold change: 0.00474

## RRIRGRPPRLPRPRPRPSMFPRP
  shrunken log2 fold change: 0.554

## RRIRTRPPRLPRPRPRPGQEPRP
  shrunken log2 fold change: -0.184

## RRIRARPPRLPRPRPRPSTHPRP
  shrunken log2 fold change: -0.0532

## RRIRTRPPRLPRPRPRPWITPRP
  shrunken log2 fold change: 0.0633

## RRIRHRPPRLPRPRPRPIDIPRP
  shrunken log2 fold change: -0.326

## RRIRVRPPRLPRPRPRPDTDPRP
  shrunken log2 fold change: -0.646

## RRIRTRPPRLPRPRPRPYKWPRP
  shrunken log2 fold change: -0.0875

## RRIRTRPPRLPRPRPRPSTTPRP
  shrunken log2 fold change: -0.0853

## RRIRNRPPRLPRPRPRPMNQPRP
  shrunken log2 fold change: -0.123

## RRIRSRPPRLPRPRPRPWRHPRP
  shrunken log2 fold change: -0.106

## RRIRCRPPRLPRPRPRPSKNPRP
  shrunken log2 fold change: -0.382

## RRIRARPPRLPRPRPRPHSPPRP
  shrunken log2 fold change: 0.122

## RRIRPRPPRLPRPRPRPGSLPRP
  shrunken log2 fold change: -0.0171

## RRIRARPPRLPRPRPRPKNRPRP
  shrunken log2 fold change: 0.134

## RRIRDRPPRLPRPRPRPAHKPRP
  shrunken log2 fold change: -0.0546

## RRIRVRPPRLPRPRPRPYVMPRP
  shrunken log2 fold change: -0.619

## RRIRHRPPRLPRPRPRPLQRPRP
  shrunken log2 fold change: -0.187

## RRIRTRPPRLPRPRPRPGYEPRP
  shrunken log2 fold change: -0.0417

## RRIRPRPPRLPRPRPRPSDIPRP
  shrunken log2 fold change: -0.417

## RRIRPRPPRLPRPRPRPSPQPRP
  shrunken log2 fold change: 0.2

## RRIRPRPPRLPRPRPRPRYHPRP
  shrunken log2 fold change: -0.224

## RRIRERPPRLPRPRPRPVYGPRP
  shrunken log2 fold change: -0.375

## RRIRPRPPRLPRPRPRPPWVPRP
  shrunken log2 fold change: 0.356

## RRIRERPPRLPRPRPRPRCYPRP
  shrunken log2 fold change: -0.138

## RRIRNRPPRLPRPRPRPFTQPRP
  shrunken log2 fold change: -0.348

## RRIRSRPPRLPRPRPRPYACPRP
  shrunken log2 fold change: -0.0148

## RRIRKRPPRLPRPRPRPTPRPRP
  shrunken log2 fold change: 1.05

## RRIRGRPPRLPRPRPRPPEKPRP
  shrunken log2 fold change: 1.64

## RRIRQRPPRLPRPRPRPHKLPRP
  shrunken log2 fold change: -0.544

## RRIRKRPPRLPRPRPRPVTQPRP
  shrunken log2 fold change: 0.169

## RRIRHRPPRLPRPRPRPKMTPRP
  shrunken log2 fold change: -0.519

## RRIRVRPPRLPRPRPRPGMWPRP
  shrunken log2 fold change: 0.149

## RRIRHRPPRLPRPRPRPLVSPRP
  shrunken log2 fold change: 0.0121

## RRIRQRPPRLPRPRPRPQINPRP
  shrunken log2 fold change: -0.285

## RRIRTRPPRLPRPRPRPKTFPRP
  shrunken log2 fold change: -0.00423

## RRIRDRPPRLPRPRPRPGFMPRP
  shrunken log2 fold change: 0.219

## RRIRHRPPRLPRPRPRPGQHPRP
  shrunken log2 fold change: -0.372

## RRIRKRPPRLPRPRPRPNPKPRP
  shrunken log2 fold change: 0.143

## RRIRYRPPRLPRPRPRPQHCPRP
  shrunken log2 fold change: -0.0601

## RRIRGRPPRLPRPRPRPLSHPRP
  shrunken log2 fold change: 0.557

## RRIRIRPPRLPRPRPRPGPPPRP
  shrunken log2 fold change: 0.221

## RRIRLRPPRLPRPRPRPVMHPRP
  shrunken log2 fold change: -0.16

## RRIRMRPPRLPRPRPRPFPVPRP
  shrunken log2 fold change: -0.175

## RRIRSRPPRLPRPRPRPVCLPRP
  shrunken log2 fold change: 0.0459

## RRIRHRPPRLPRPRPRPQTVPRP
  shrunken log2 fold change: -0.495

## RRIRCRPPRLPRPRPRPEPLPRP
  shrunken log2 fold change: 0.438

## RRIRFRPPRLPRPRPRPIAYPRP
  shrunken log2 fold change: -0.156

## RRIRIRPPRLPRPRPRPEMVPRP
  shrunken log2 fold change: -0.14

## RRIRSRPPRLPRPRPRPYPEPRP
  shrunken log2 fold change: -0.355

## RRIRGRPPRLPRPRPRPDATPRP
  shrunken log2 fold change: 4.21

## RRIRIRPPRLPRPRPRPGWRPRP
  shrunken log2 fold change: 0.468

## RRIRARPPRLPRPRPRPCEKPRP
  shrunken log2 fold change: 0.0244

## RRIRSRPPRLPRPRPRPDSKPRP
  shrunken log2 fold change: 1.02

## RRIRIRPPRLPRPRPRPIDTPRP
  shrunken log2 fold change: -0.00177

## RRIRPRPPRLPRPRPRPKWMPRP
  shrunken log2 fold change: -0.158

## RRIRNRPPRLPRPRPRPRKEPRP
  shrunken log2 fold change: -0.0425

## RRIRFRPPRLPRPRPRPCKVPRP
  shrunken log2 fold change: 0.0595

## RRIRQRPPRLPRPRPRPFHAPRP
  shrunken log2 fold change: -0.117

## RRIRWRPPRLPRPRPRPRCTPRP
  shrunken log2 fold change: 0.243

## RRIRPRPPRLPRPRPRPMTAPRP
  shrunken log2 fold change: 0.162
